Consider 167 variants from the RNAGym collection of RNA variant scans (doi:10.7554/elife.80360).

First the molecules themselves.
B1: Hairpin Ribozyme (parent)
chain: GUCCUCUUUCACGUGCGCGUGAAAGAGAGAAGUGAACCAGAGAAACACACGUUGUGGUAUAUUACCUGGUA

In the data set the parent is B1. The data set can be described thus: self-cleavage, relative activity (ratio to wild type); higher = more cleavage; co-transcriptional.
Take C3U G68U: the self-cleavage came out at 0.19.
Turning to C3U C38U, the self-cleavage is 0.354.
Consider C3U A24C, for which the self-cleavage was determined as 0.477.
As to C4G A31C, the self-cleavage is 0.176.
Turning to C4G A31U, the self-cleavage came to 0.183.
For C4A A36G, the self-cleavage came out at 0.198.
As to C3G A28U, the self-cleavage amounted to 0.647.
In the case of C4G G17C, the self-cleavage worked out at 0.121.
Consider C4G G17U, for which the self-cleavage turned out to be 0.336.
On to C4G U14G, for which the self-cleavage turned out to be 0.265.
As to C4G U14A, the self-cleavage came to 0.231.
On to C3U A35C, for which the self-cleavage turned out to be 0.802.
Consider C3U A35U, for which the self-cleavage is 0.339.
Take C3G C65G: the self-cleavage worked out at 0.0169.
For C4G A22C, the self-cleavage was found to be 0.206.
On to C4A G19U, for which the self-cleavage came to 0.221.
Turning to C3G G51A, the self-cleavage is 0.369.
In the case of C3G G51C, the self-cleavage was 0.238.
Consider C3U A43G, for which the self-cleavage turned out to be 0.138.
Turning to C4A C18A, the self-cleavage was found to be 0.13.
On to C3A U62C, for which the self-cleavage came out at 0.2.
On to C3G A71U, for which the self-cleavage was found to be 0.148.
Consider C3G A71C, for which the self-cleavage is 0.58.
Consider C3A U67G, for which the self-cleavage is 0.199.
Next, C3A U67A: 0.132; C4G A36C: 0.103.
With C4G A36U, the self-cleavage was found to be 0.118.
As for C4U A26C, the self-cleavage came out at 0.144.
In the case of C4A A71U, the self-cleavage is 0.138.
Consider C3G U53G, for which the self-cleavage came to 0.235.
C3G U53C: the self-cleavage is 0.102.
For the variant C4A U9G, the self-cleavage turned out to be 0.151.
For the variant C4A U9C, the self-cleavage turned out to be 0.163.
For the variant C4U G13A, the self-cleavage was determined as 0.238.
On to C3U G57U, for which the self-cleavage came to 0.204.
As to C3U G57A, the self-cleavage was 0.0631.
As for C3G A45G, the self-cleavage is 0.118.
As to C3G A45C, the self-cleavage is 0.0981.
For the variant C4G A39G, the self-cleavage is 0.0945.
With C4G A39C, the self-cleavage amounted to 0.193.
Next, C4U C10G: 0.264.
C4U G40A: the self-cleavage amounted to 0.147.
For C3G U33A, the self-cleavage is 0.138.
Regarding C4U G25A, the self-cleavage turned out to be 0.129.
Regarding C4U A41U, the self-cleavage stood at 0.71.
On to C4U A41C, for which the self-cleavage was 0.469.
Next, C4G G54C: 0.139; C4G G54A: 0.144.
Next, C4U C38U: 0.234.
For C4U A49G, the self-cleavage stood at 0.0694.
For the variant C4U G51U, the self-cleavage amounted to 0.194.
In the case of C4U G51A, the self-cleavage was 0.533.
With C4U C65G, the self-cleavage came out at 0.0877.
Turning to C4U C65A, the self-cleavage came out at 0.374.
Consider C4A U33C, for which the self-cleavage came out at 0.132.
Take C4A U33A: the self-cleavage turned out to be 0.174.
C3U U53A: the self-cleavage worked out at 0.495.
The same measure for C4U A59U: 0.113.
For C4U A59G, the self-cleavage was 0.163.
Regarding C3G U20G, the self-cleavage was found to be 0.28.
For the variant C4U C48U, the self-cleavage stood at 0.142.
Take C4A U7C: the self-cleavage was 0.147.
As for C4A U7A, the self-cleavage was found to be 0.175.
Consider C3U A31U, for which the self-cleavage stood at 0.102.
Turning to C4G A26U, the self-cleavage worked out at 0.204.
Turning to C3G U14A, the self-cleavage is 0.431.
C3G G29C: the self-cleavage was 0.0773.
The same measure for C3G G29U: 0.0672.
In the case of C3G U63A, the self-cleavage was 0.108.
On to C3G U63G, for which the self-cleavage was determined as 0.18.
In the case of C3G A47C, the self-cleavage was determined as 0.0701.
With C4A C6A, the self-cleavage came out at 0.166.
Regarding C3G A59G, the self-cleavage amounted to 0.0582.
Next, C3G A59U: 0.164; C3G U52C: 0.359.
Consider C4U G19U, for which the self-cleavage came out at 0.312.
Regarding C3U C16G, the self-cleavage is 0.23.
As for C4G A47G, the self-cleavage is 0.168.
On to C4G U52G, for which the self-cleavage amounted to 0.184.
The same measure for C4G U52A: 0.143; for C3G U67A: 0.0949.
On to C4G U63C, for which the self-cleavage amounted to 0.112.
Regarding C4U G32C, the self-cleavage is 0.114.
In the case of C4U G32U, the self-cleavage came to 0.0825.
Turning to C4U U5C, the self-cleavage came to 0.109.
Take C4U U5G: the self-cleavage amounted to 0.343.
On to C4A C38G, for which the self-cleavage was determined as 0.175.
Next, C4A C38A: 0.104.
The same measure for C3U G21A: 0.483.
With C4U A45U, the self-cleavage turned out to be 0.0517.
Turning to C3U U14G, the self-cleavage came to 0.442.
With C3U A36G, the self-cleavage stood at 0.505.
For the variant C3U G15U, the self-cleavage is 0.474.
Next, C3U G15A: 0.416; C3U C65U: 0.334; C3U C65A: 0.611.
On to C4G G25A, for which the self-cleavage was determined as 0.156.
Turning to C4G A44U, the self-cleavage came out at 0.164.
As to C4G A44G, the self-cleavage came out at 0.0493.
With C4U A28C, the self-cleavage was found to be 0.273.
C4U A35C: the self-cleavage was determined as 0.418.
As to C3U C50A, the self-cleavage stood at 0.174.
Next, C3U A45G: 0.101.
On to C3U A45C, for which the self-cleavage is 0.123.
With C4U C37U, the self-cleavage was determined as 0.243.
The same measure for C3U C48A: 0.167; for C4G G13A: 0.193; for C4U C18G: 0.349.
As for C4U C18U, the self-cleavage is 0.514.
For C3U A26G, the self-cleavage worked out at 0.509.
As for C3G A36C, the self-cleavage stood at 0.165.
Next, C3G A61C: 0.168; C3U C18G: 0.531.
Turning to C3U C18A, the self-cleavage stood at 0.641.
Turning to C3G G13C, the self-cleavage was determined as 0.321.
C3G G13A: the self-cleavage amounted to 0.255.
Turning to C4U A61C, the self-cleavage worked out at 0.294.
As for C4U A61U, the self-cleavage came to 0.0691.
The same measure for C4U A61G: 0.169; for C3U A59C: 0.143; for C3G A22G: 0.264.
With C4G U8A, the self-cleavage came out at 0.0905.
With C4A G69C, the self-cleavage worked out at 0.156.
Regarding C4G U60C, the self-cleavage was found to be 0.224.
The same measure for C4A A35U: 0.188; for C4A A35G: 0.33.
In the case of C3G A41U, the self-cleavage worked out at 0.527.
For the variant C3G A41C, the self-cleavage is 0.341.
The same measure for C4A A47G: 0.188; for C4A A47C: 0.205; for C3G A64U: 0.134.
For the variant C3U G34A, the self-cleavage is 0.747.
Next, C3U A11U: 0.32; C3G U58A: 0.0819.
Take C4A C65A: the self-cleavage is 0.148.
Take C4U A22C: the self-cleavage was determined as 0.172.
On to C4U G34A, for which the self-cleavage worked out at 0.688.
On to C3G U55G, for which the self-cleavage was 0.0936.
The same measure for C3G U55C: 0.118.
Next, C4G C18U: 0.284.
On to C4G C38U, for which the self-cleavage amounted to 0.129.
Regarding C4G C66A, the self-cleavage amounted to 0.277.
The same measure for C4G C66U: 0.178; for C4A A30G: 0.105; for C4A A30U: 0.228.
On to C4A A45C, for which the self-cleavage amounted to 0.167.
With C3G A26G, the self-cleavage stood at 0.338.
On to C4G G40A, for which the self-cleavage stood at 0.114.
The same measure for C4A C50U: 0.13.
C4U C16A: the self-cleavage came out at 0.41.
C4A U20C: the self-cleavage turned out to be 0.267.
As for C4A G21A, the self-cleavage was found to be 0.165.
C3U U63G: the self-cleavage was determined as 0.12.
With C3U U63C, the self-cleavage amounted to 0.264.
Consider C4G G27A, for which the self-cleavage was 0.325.
The same measure for C4A A64U: 0.0608; for C4A A64C: 0.156; for C4A U52A: 0.206.
Consider C4G G32C, for which the self-cleavage came to 0.115.
As to C4G G32U, the self-cleavage was determined as 0.149.
As to C3G, the self-cleavage was 0.296.
In the case of C3U, the self-cleavage was determined as 0.526.
In the case of C4G A64U, the self-cleavage amounted to 0.142.
For C4G A64G, the self-cleavage was 0.124.
As for C4G C46G, the self-cleavage is 0.122.
For the variant C4G C16G, the self-cleavage was 0.201.
Next, C4A U58G: 0.183.
